# Data: doi:10.1101/2024.12.28.630591 (bioRxiv, 2024)
# T1: Gα13 K94E/R97E (human, UniProt Q14344 1-377, K94E | R97E)
# T1 sequence (looked up): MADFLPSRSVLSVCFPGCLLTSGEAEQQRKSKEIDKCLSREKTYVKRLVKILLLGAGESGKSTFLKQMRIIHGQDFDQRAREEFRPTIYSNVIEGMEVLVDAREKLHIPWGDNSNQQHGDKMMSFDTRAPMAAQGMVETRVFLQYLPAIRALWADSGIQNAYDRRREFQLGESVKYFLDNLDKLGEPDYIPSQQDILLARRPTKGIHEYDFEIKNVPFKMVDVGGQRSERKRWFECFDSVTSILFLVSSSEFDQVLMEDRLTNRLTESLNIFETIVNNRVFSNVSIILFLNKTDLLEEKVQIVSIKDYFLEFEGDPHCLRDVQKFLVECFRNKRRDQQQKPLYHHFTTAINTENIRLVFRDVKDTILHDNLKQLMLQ
# T2: Gα13 R279A (human, UniProt Q14344 1-377, R279A)
# T2 sequence (looked up): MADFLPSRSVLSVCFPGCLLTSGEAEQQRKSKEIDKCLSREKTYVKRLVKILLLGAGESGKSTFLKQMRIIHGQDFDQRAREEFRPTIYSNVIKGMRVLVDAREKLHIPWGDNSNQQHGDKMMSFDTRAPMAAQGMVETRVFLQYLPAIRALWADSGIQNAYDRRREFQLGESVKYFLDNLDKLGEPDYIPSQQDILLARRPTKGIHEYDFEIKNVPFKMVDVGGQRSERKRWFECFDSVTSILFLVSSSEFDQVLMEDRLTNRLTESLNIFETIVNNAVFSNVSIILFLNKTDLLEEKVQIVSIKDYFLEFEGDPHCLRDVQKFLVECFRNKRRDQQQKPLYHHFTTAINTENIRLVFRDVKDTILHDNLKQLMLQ
# T3: Gα13 P202A (human, UniProt Q14344 1-377, P202A)
# T3 sequence (looked up): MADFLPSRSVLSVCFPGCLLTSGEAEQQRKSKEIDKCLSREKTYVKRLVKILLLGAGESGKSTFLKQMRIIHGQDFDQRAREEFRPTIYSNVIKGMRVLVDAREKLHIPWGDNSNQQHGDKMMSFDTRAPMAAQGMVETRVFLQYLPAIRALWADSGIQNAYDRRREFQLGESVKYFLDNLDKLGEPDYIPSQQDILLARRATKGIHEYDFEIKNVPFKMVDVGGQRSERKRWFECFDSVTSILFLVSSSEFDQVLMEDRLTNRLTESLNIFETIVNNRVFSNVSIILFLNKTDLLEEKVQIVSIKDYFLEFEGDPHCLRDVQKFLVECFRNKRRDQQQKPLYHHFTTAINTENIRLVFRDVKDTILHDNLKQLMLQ
# T4: Gα12 (human, UniProt Q03113 1-381)
# T4 sequence: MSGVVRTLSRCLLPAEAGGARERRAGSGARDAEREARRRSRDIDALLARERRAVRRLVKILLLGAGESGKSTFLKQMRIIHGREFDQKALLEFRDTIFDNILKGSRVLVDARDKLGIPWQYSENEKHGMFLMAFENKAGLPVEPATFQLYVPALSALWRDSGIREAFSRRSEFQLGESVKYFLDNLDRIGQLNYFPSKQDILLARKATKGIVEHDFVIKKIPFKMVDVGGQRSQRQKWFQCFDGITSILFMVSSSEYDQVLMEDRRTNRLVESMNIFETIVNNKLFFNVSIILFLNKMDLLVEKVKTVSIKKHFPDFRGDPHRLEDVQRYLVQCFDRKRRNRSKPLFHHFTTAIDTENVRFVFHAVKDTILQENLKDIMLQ
# T5: Gα13 (human, UniProt Q14344 1-377)
# T5 sequence: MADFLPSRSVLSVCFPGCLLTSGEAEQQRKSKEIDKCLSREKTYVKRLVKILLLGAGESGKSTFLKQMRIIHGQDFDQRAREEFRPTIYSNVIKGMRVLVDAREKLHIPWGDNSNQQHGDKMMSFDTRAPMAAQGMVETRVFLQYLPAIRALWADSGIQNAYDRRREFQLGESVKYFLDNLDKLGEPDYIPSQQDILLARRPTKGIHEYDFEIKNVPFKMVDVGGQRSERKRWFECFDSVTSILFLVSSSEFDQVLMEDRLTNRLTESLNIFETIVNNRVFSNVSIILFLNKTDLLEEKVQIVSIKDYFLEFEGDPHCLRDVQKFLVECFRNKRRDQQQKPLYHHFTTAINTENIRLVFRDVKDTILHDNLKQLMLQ
# Columns and labels:
# Test in all cases: FRET or BRET
# Gα13 K94E/R97E = target: T1, Gα13 K94E/R97E
# Gα13 R279A = target: T2, Gα13 R279A
# Gα13 R201V (human) = Gα13 R201V (human) (UniProt Q14344)
# [1] = target: Gα13 with mutations in three helical domain residues
# Gα13 P202A = target: T3, Gα13 P202A
# Gα12 = target: T4, Gα12
# Gα13 = target: T5, Gα13
Binder,percent reduction of recruitment against WT Gα13 (Gα13 K94E/R97E),percent reduction of recruitment against WT Gα13 (Gα13 R279A),percent reduction of recruitment against WT Gα13 (Gα13 R201V (human)),percent reduction of recruitment against WT Gα13 [1],percent reduction of recruitment against WT Gα13 (Gα13 P202A),percent reduction of recruitment against WT p115RhoGEF sensor (Gα12),percent reduction of recruitment against WT p115RhoGEF sensor (Gα13)
"PDZ RhoGEF-RlucII sensor (domain or fragment, UniProt O15085 281-483, looked up) QGVDQSPKPLIIGPEEDYDPGYFNNESDIIFQDLEKLKSRPAHLGVFLRYIFSQADPSPLLFYLCAEVYQQASPKDSRSLGKDIWNIFLEKNAPLRVKIPEMLQAEIDSRLRNSEDARGVLCEAQEAAMPEIQEQIHDYRTKRTLGLGSLYGENDLLDLDGDPLRERQVAEKQLAALGDILSKYEEDRSAPMDFALNTYMSHA",71%,50%,,,,,
"p115 RhoGEF (21-244)-RlucII (domain or fragment, UniProt Q92888 21-244, looked up) VSIIGAEDEDFENELETNSEEQNSQFQSLEQVKRRPAHLMALLQHVALQFEPGPLLCCLHADMLGSLGPKEAKKAFLDFYHSFLEKTAVLRVPVPPNVAFELDRTRADLISEDVQRRFVQEVVQSQQVAVGRQLEDFRSKRLMGMTPWEQELAQLEAWVGRDRASYEARERHVAERLLMHLEEMQHTISTDEEKSAAVVNAIGLYMRHLGVRTKSGDKKSGRNF",81%,50%,26%,27 to 81%,37%,,
p115 RhoGEF (21-244)-RlucII E27A (domain or fragment) VSIIGAADEDFENELETNSEEQNSQFQSLEQVKRRPAHLMALLQHVALQFEPGPLLCCLHADMLGSLGPKEAKKAFLDFYHSFLEKTAVLRVPVPPNVAFELDRTRADLISEDVQRRFVQEVVQSQQVAVGRQLEDFRSKRLMGMTPWEQELAQLEAWVGRDRASYEARERHVAERLLMHLEEMQHTISTDEEKSAAVVNAIGLYMRHLGVRTKSGDKKSGRNF,,,,,,~50%,~50%

# Second part, the binder after the results:
percent reduction of recruitment against WT Gα13 (Gα13 K94E/R97E),percent reduction of recruitment against WT Gα13 (Gα13 R279A),percent reduction of recruitment against WT Gα13 (Gα13 R201V (human)),percent reduction of recruitment against WT Gα13 [1],percent reduction of recruitment against WT Gα13 (Gα13 P202A),percent reduction of recruitment against WT p115RhoGEF sensor (Gα12),percent reduction of recruitment against WT p115RhoGEF sensor (Gα13),Binder
,,,,,~50%,~50%,p115 RhoGEF (21-244)-RlucII I23A (domain or fragment) VSAIGAEDEDFENELETNSEEQNSQFQSLEQVKRRPAHLMALLQHVALQFEPGPLLCCLHADMLGSLGPKEAKKAFLDFYHSFLEKTAVLRVPVPPNVAFELDRTRADLISEDVQRRFVQEVVQSQQVAVGRQLEDFRSKRLMGMTPWEQELAQLEAWVGRDRASYEARERHVAERLLMHLEEMQHTISTDEEKSAAVVNAIGLYMRHLGVRTKSGDKKSGRNF
,,,,,~50%,~50%,p115 RhoGEF (21-244)-RlucII I23F (domain or fragment) VSFIGAEDEDFENELETNSEEQNSQFQSLEQVKRRPAHLMALLQHVALQFEPGPLLCCLHADMLGSLGPKEAKKAFLDFYHSFLEKTAVLRVPVPPNVAFELDRTRADLISEDVQRRFVQEVVQSQQVAVGRQLEDFRSKRLMGMTPWEQELAQLEAWVGRDRASYEARERHVAERLLMHLEEMQHTISTDEEKSAAVVNAIGLYMRHLGVRTKSGDKKSGRNF
